Assay results published in the supplement of paper PMC10567573.

B1: KRT18 (parent)
chain: KSQDLAKIMADIRAQYDELARKNR

Variants of: B1
Assay: protein stability index of a GFP-peptide fusion (GPS, HEK-293T) (PSI 1-6); higher = more stable
Settings: c terminus: a fixed tail appended
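Note: lentivirally expressed fusions sorted by FACS into six bins by GFP to DsRed ratio, PSI derived from sequencing read proportions per bin multiplied by bin number.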

Compared with KSQDLAKIMADIRAQYIELARKNR [D17I], KSQDLAKIMADIRAQYVELARKNR [D17V] is higher in protein stability index: 2.01 for the first, 2.2 for the second.

Going from KSQDLAKIMADIRAQYNELARKNR [D17N] to KSQDLAKIMADIRAQYEELARKNR [D17E], the protein stability index falls from 2.65 to 1.85.

Compared with KSQDLAKIMADIRAQYYELARKNR [D17Y], KSQDLAKIMADIRAQYGELARKNR [D17G] is higher in protein stability index: 2.37 for the first, 2.72 for the second.

Compared with KSQDLAKIMADIRAQYAELARKNR [D17A], KSQDLAKIDADIRAQYDELARKNR [M9D] is higher in protein stability index: 2.54 for the first, 4.72 for the second.

Going from KSQDLAKIGADIRAQYDELARKNR [M9G] to KSQDLAKIKADIRAQYDELARKNR [M9K], the protein stability index falls from 4.12 to 3.8.

First: KSQDLAKIIADIRAQYDELARKNR [M9I]
Second: KSQDLAKICADIRAQYDELARKNR [M9C]
The protein stability index of the first is lower: 2.03 for the first, 3.14 for the second.

Compared with KSQDLAKIHADIRAQYDELARKNR [M9H], KSQDLAKIAADIRAQYDELARKNR [M9A] is higher in protein stability index: 3.68 for the first, 3.71 for the second.

Compared with KSQDLAKIPADIRAQYDELARKNR [M9P], KSQDLAKIMADIRAQYDELYRKNR [A20Y] is lower in protein stability index: 4.67 for the first, 1.71 for the second.

Compared with KSQDLAKIMADIRAQYDELFRKNR [A20F], KSQDLAKIMADIRAQYDELVRKNR [A20V] is higher in protein stability index: 2.69 for the first, 2.85 for the second.

Going from KSQDLAKIMADIRAQYDELRRKNR [A20R] to KSQDLAKIMADIRAQYDELDRKNR [A20D], the protein stability index rises from 3.09 to 3.42.

Compared with KSQDLAKIMADIRAQYDELCRKNR [A20C], KSQDLAKIMADIRAQYDELSRKNR [A20S] is higher in protein stability index: 2.38 for the first, 2.87 for the second.

Compared with KSQDLAKIMADIRAAYDELARKNR [Q15A], KSQDLAKIMADIRAWYDELARKNR [Q15W] is higher in protein stability index: 2.06 for the first, 2.46 for the second.

Compared with KSQDLAKIMADIRATYDELARKNR [Q15T], KSQDLAKIMADIRAFYDELARKNR [Q15F] is higher in protein stability index: 2.24 for the first, 2.34 for the second.

Going from KSQDLAKIMADIRALYDELARKNR [Q15L] to KSQDLAKIMADIRARYDELARKNR [Q15R], the protein stability index rises from 1.9 to 2.6.

Going from KSQDLAKIMADIRAHYDELARKNR [Q15H] to KSQDLAKIMADIRAPYDELARKNR [Q15P], the protein stability index rises from 1.97 to 3.84.

Going from KSQDLAKIMADIRADYDELARKNR [Q15D] to KSQDLAKIMADIRAKYDELARKNR [Q15K], the protein stability index falls from 3.49 to 2.4.

First: KSQDLAKIMADIRAGYDELARKNR [Q15G]
Second: KSQDLAKIMADIRAYYDELARKNR [Q15Y]
The protein stability index of the first is higher: 3.43 for the first, 2.16 for the second.

Going from LSQDLAKIMADIRAQYDELARKNR [K1L] to RSQDLAKIMADIRAQYDELARKNR [K1R], the protein stability index falls from 2.88 to 2.62.

Going from FSQDLAKIMADIRAQYDELARKNR [K1F] to WSQDLAKIMADIRAQYDELARKNR [K1W], the protein stability index falls from 3.1 to 2.28.

Compared with PSQDLAKIMADIRAQYDELARKNR [K1P], GSQDLAKIMADIRAQYDELARKNR [K1G] is lower in protein stability index: 3.03 for the first, 2.83 for the second.

Compared with TSQDLAKIMADIRAQYDELARKNR [K1T], MSQDLAKIMADIRAQYDELARKNR [K1M] is higher in protein stability index: 2.58 for the first, 2.81 for the second.

Going from KSYDLAKIMADIRAQYDELARKNR [Q3Y] to KSEDLAKIMADIRAQYDELARKNR [Q3E], the protein stability index rises from 1.88 to 2.89.

Compared with KSCDLAKIMADIRAQYDELARKNR [Q3C], KSWDLAKIMADIRAQYDELARKNR [Q3W] is lower in protein stability index: 2.02 for the first, 1.71 for the second.

Going from KSMDLAKIMADIRAQYDELARKNR [Q3M] to KSKDLAKIMADIRAQYDELARKNR [Q3K], the protein stability index falls from 2.41 to 2.37.

First: KSTDLAKIMADIRAQYDELARKNR [Q3T]
Second: KSADLAKIMADIRAQYDELARKNR [Q3A]
The protein stability index of the first is higher: 2.76 for the first, 2.31 for the second.

First: KSRDLAKIMADIRAQYDELARKNR [Q3R]
Second: KSGDLAKIMADIRAQYDELARKNR [Q3G]
The protein stability index of the first is lower: 2.57 for the first, 2.72 for the second.

Going from KSQDLAKIMADIMAQYDELARKNR [R13M] to KSQDLAKIMADIQAQYDELARKNR [R13Q], the protein stability index rises from 1.83 to 2.85.

Compared with KSQDLAKIMADIHAQYDELARKNR [R13H], KSQDLAKIMADIPAQYDELARKNR [R13P] is higher in protein stability index: 2.53 for the first, 4.12 for the second.

First: KSQDLAKIMADIKAQYDELARKNR [R13K]
Second: KSQDLAKIMADICAQYDELARKNR [R13C]
The protein stability index of the first is higher: 2.92 for the first, 2.06 for the second.

First: KSQDLAKIMADINAQYDELARKNR [R13N]
Second: KSQDLAKIMADIFAQYDELARKNR [R13F]
The protein stability index of the first is higher: 3.62 for the first, 1.93 for the second.

Going from KSQDLAKIMADIRGQYDELARKNR [A14G] to KSQDLAKIMADIRPQYDELARKNR [A14P], the protein stability index rises from 3.39 to 3.66.

First: KSQDLAKIMADIRNQYDELARKNR [A14N]
Second: KSQDLAKIMADIRSQYDELARKNR [A14S]
The protein stability index of the first is lower: 2.73 for the first, 3.63 for the second.

Compared with KSQDLAKIMADIRDQYDELARKNR [A14D], KSQDLAKIMADIRKQYDELARKNR [A14K] is lower in protein stability index: 2.8 for the first, 2.4 for the second.

First: KSQDLAKIMADIRRQYDELARKNR [A14R]
Second: KSQDLAKIMADIRAQYDELARKNN [R24N]
The protein stability index of the first is lower: 2.71 for the first, 3.13 for the second.

First: KSQDLAKIMADIRAQYDELARKNM [R24M]
Second: KSQDLAKIMADIRAQYDELARKNF [R24F]
The protein stability index of the first is higher: 3.07 for the first, 2.79 for the second.

Going from KSQDLAKIMADIRAQYDELARKNE [R24E] to KSQDLAKIMADIRAQYDELARKNT [R24T], the protein stability index falls from 3.17 to 3.13.

Compared with KSQDLAKIMADIRAQYDELARKNK [R24K], KSQDLAKIMADIRAQYDELARKNW [R24W] is lower in protein stability index: 3.46 for the first, 2.13 for the second.

First: KSQDLAKIMADIRAQYDELARKNA [R24A]
Second: KSQDLAKIMADIRAQYDELARKNY [R24Y]
The protein stability index of the first is higher: 3.33 for the first, 2.01 for the second.

Compared with KSQDLAKIMADIRAQYDELARKNS [R24S], KSQDLAKIMADIRAQYDELARKNP [R24P] is higher in protein stability index: 2.61 for the first, 3.16 for the second.

Going from KSQDLAKIMADIRAQYDELARKNG [R24G] to KHQDLAKIMADIRAQYDELARKNR [S2H], the protein stability index falls from 3.57 to 2.63.

Going from KEQDLAKIMADIRAQYDELARKNR [S2E] to KYQDLAKIMADIRAQYDELARKNR [S2Y], the protein stability index falls from 3.02 to 2.04.

First: KWQDLAKIMADIRAQYDELARKNR [S2W]
Second: KAQDLAKIMADIRAQYDELARKNR [S2A]
The protein stability index of the first is lower: 1.86 for the first, 2.2 for the second.

Compared with KLQDLAKIMADIRAQYDELARKNR [S2L], KNQDLAKIMADIRAQYDELARKNR [S2N] is higher in protein stability index: 1.73 for the first, 2.41 for the second.

Compared with KQQDLAKIMADIRAQYDELARKNR [S2Q], KDQDLAKIMADIRAQYDELARKNR [S2D] is higher in protein stability index: 2.46 for the first, 2.85 for the second.

KSQDLAKIMAEIRAQYDELARKNR [D11E] and KSQDLAKIMAVIRAQYDELARKNR [D11V] are the same in protein stability index: 2.14 for the first, 2.14 for the second.

Compared with KSQDLAKIMAIIRAQYDELARKNR [D11I], KSQDLAKIMAMIRAQYDELARKNR [D11M] is higher in protein stability index: 1.88 for the first, 2.02 for the second.

Going from KSQDLAKIMASIRAQYDELARKNR [D11S] to KSQDLAKIMAKIRAQYDELARKNR [D11K], the protein stability index falls from 2.21 to 1.8.
